Experimental findings from patent US20230365705A1 (DYNAMICURE BIOTECHNOLOGY, published 2023) are described below.

For experiment [1], the target named is T1, Human CD93 recombinant protein (Sino Biological Inc, Catalog #12589-H08H) (human, UniProt Q9NPY3 22-580).
T1 construct: Biotinylated (EZ-LINK NHS-PEG4 biotin) in the BLI assays; also called hCD93; His-tagged human CD93
T1 sequence (looked up): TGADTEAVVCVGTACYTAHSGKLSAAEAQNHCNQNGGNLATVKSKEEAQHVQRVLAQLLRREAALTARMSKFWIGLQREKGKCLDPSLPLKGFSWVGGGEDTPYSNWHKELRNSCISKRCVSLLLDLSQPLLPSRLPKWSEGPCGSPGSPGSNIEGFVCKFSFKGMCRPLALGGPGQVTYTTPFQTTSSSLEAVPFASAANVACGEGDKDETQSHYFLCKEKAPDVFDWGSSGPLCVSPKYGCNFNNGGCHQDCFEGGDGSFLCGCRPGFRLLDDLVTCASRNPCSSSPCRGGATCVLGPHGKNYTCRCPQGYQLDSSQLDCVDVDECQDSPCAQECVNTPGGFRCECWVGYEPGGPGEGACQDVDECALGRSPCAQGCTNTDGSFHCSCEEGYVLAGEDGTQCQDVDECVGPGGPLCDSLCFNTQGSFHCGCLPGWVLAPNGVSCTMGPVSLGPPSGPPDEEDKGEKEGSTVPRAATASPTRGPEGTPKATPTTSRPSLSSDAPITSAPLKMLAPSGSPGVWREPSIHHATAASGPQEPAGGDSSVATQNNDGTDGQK
Briefly: BLI (Octet QKe), biotinylated CD93 on streptavidin biosensors; table under the hCD93 panels. The protocol:
The binding affinity of anti-CD93 antibodies were determined with bio-layer interferometry using Octet QKe (Fortebio). Human CD93 recombinant protein (Sino Biological Inc, Catalog #12589-H08H) or cynomolgus CD93 protein (made in-house) were biotinylated using EZ-LINK NHS-PEG4 biotin (Thermo Fisher Scientific). Streptavidin biosensors (Fortebio) were used to load biotinylated CD93 protein (300 seconds at 5 μg/ml). The baseline was stabilized for 60 seconds in a 1× kinetics buffer (Fortebio) before serially diluted anti-CD93 antibodies were allowed to associate for 300 seconds with captured protein. The sensors were dissociated in a 1× kinetics buffer for 600 seconds.
(Biolayer interferometry detects binding as a change in optical thickness at a sensor tip.)

The target in experiment [2] is T2, Human CD93 on cells (human CD93 expressing CHO cells; HUVEC, U937 and KG1a cells) (human, UniProt Q9NPY3 22-652).
T2 construct: whole, on cells; also called hCD93 expressing CHO cells; hCD93 CHO cells
T2 sequence (looked up): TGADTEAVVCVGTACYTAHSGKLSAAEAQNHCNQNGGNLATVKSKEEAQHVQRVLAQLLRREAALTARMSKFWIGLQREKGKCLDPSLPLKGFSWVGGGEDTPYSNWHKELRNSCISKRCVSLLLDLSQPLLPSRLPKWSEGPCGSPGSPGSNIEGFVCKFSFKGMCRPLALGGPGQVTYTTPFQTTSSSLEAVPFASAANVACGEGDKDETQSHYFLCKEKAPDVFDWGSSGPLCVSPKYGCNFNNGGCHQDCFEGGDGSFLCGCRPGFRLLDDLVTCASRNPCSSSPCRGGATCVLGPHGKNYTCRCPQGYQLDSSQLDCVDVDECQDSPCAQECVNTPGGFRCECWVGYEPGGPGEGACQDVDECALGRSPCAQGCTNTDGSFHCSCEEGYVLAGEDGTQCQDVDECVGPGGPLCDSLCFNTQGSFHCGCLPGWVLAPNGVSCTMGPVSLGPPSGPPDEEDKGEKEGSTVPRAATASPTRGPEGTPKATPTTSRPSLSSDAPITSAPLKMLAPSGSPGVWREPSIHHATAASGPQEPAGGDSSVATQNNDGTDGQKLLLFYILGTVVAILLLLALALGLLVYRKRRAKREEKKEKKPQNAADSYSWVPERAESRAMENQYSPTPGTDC
The experiment in a line: flow cytometry, CHO-hCD93 cells, APC-A. Background: Flow cytometry measures light scatter and fluorescence of single cells or particles in a stream.

Experiment [3] addresses T2, Human CD93 on cells (human CD93 …). Briefly: flow cytometry titration, CHO-hCD93 cells. As to the method:
Human CD93 expressing CHO cells were detached by incubation with TrypLE reagents (Thermo Fisher), which preserves the integrity of CD93 on the cell surface. Then the cells were incubated with serial diluted anti-CD93 antibodies for 30 minutes at 4° C. After washing by FACS buffer, the cells were incubated with Alexa Fluor 647 conjugated anti-human IgG (Jackson ImmunoResearch) for 30 minutes in 4° C. After washing by FACS buffer twice, the samples were acquired in NovoCyte Flow Cytometer and analyzed by NovoExpress software.

Experiment [4] shares this target. Briefly: flow cytometry blocking assay, CHO-hCD93 cells; blocked ligand hMMRN2 495-674 at 0.1 ug/ml, APC anti-His. The protocol: Then the cells were incubated with hMMRN2₄₉₅₋₆₇₄ at 0.1 μg/ml. […] After washing with FACS buffer twice, the samples were analyzed, and data acquired in NovoCyte Flow. Recombinant his tagged hMMRN2₄₉₅₋₆₇₄ was produced internally in E. Coli following routine procedure.

Experiment [5] shares this target. The experiment in a line: summary table, column FACS (HUVEC cells); 2 weeks at 40 C. As to the method: HUVEC cells were detached by incubation with TrypLE reagents (Thermo Fisher), which preserves the integrity of CD93 on the cell surface. Then the cells were incubated with serial diluted anti-CD93 antibodies for 30 minutes at 4° C. After washing by FACS buffer, the cells were incubated with Alexa Fluor 647 conjugated anti-human IgG (Jackson ImmunoResearch) for 30 minutes in 4° C. After washing by FACS buffer twice, the samples were acquired in NovoCyte Flow Cytometer and analyzed by NovoExpress software.

B1: 16E4 (hybridoma) (antibody, IgG2a, V domains shown)
VH: QVQLQQPGAELVKPGASVKLSCKASGYTFTSYWMHWVKQRPGQGLEWIGEIDPSASYTYYNQKFKGKATLTVDKSSSTAYMQLSSLTSEDSAVYYCARSVYYGNKYFDVWGAGTTVTVSS
VL: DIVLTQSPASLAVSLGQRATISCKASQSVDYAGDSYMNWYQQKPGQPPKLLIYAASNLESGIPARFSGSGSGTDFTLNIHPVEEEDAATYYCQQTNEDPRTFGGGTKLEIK
notes: also called 16E4 mAb; 16E4 mIgG2a
For B1, in experiment [1], the Kd turned out to be 447 pM, the koff was found to be 0.000429 s⁻¹ and the on-rate constant (kon) is 960000 M⁻¹ s⁻¹. Moreover, the “M3 gate, % of cells” value in experiment [2] is 98.7%.

B2: h16E4 (humanized 16E4, VH4+VL6) (antibody, V domains shown)
VH: QVQLVQSGAEVKKPGASVKVSCKASGYTFTSYWMHWVRQAPGQGLEWMGEIDPSASYTYYNQKFKGRVTMTRDKSSSTVYMELSSLTSEDSAVYYCARSVYYGNKYFDVWGAGTTVTVSS
VL: DIQMTQSPSTLSASVGDRVTITCKASQSVDYAGDSYMNWYQQKPGKAPKLLIYAASNLESGVPSRFSGSGSGTEFTLTISSLQPDDFATYYCQQTNEDPRTFGGGTKLEIK
notes: Detected with anti-human IgG, so a human Fc
B2 had an EC50 in experiment [3] of 388 pM.

B3: h7F3 (humanized 7F3, VH3+VL3) (antibody, human IgG1, V domains shown)
VH: QVQLVQSGAEVKKPGASVKVSCKASGYTFTDYEMHWVRQAPGQGLEWMGGIDPETGDTAYNQNFKGRVTMTTDTSTSTAYMELRSLTSDDTAVYYCTNYGNLYYYAMDYWGQGTSVTVSS
VL: EIVLTQSPSSLSASVGDRVTITCRASSSVSSSYLHWYQQKPGKAPKLLIYSTSNLAFGVPSRFSGSGSGTSYTFTISSLQPEDIATYYCQQYSGYPLTFGSGTKLEIK
notes: also called humanized 7F3-hIgG1
On to B3, for which, in experiment [4], the 50% inhibitory concentration (IC50) was found to be 173 pM. In experiment [5], this molecule displayed a half-maximal effective concentration (EC50) of 1170 pM.

For orientation: Kd means the free concentration of one partner at which half of the binding sites on the other are occupied at equilibrium, for simple one-to-one binding. As usually defined, the koff is the first-order rate constant of dissociation. In general, kon refers to the rate constant with which the complex forms. For orientation: EC50 means the concentration giving half of the maximal effect. Lower therefore signals a more potent agent. In general, IC50 refers to the concentration that inhibits the measured activity by half. The low end stands for higher potency, the high end for lower potency.
